How the values were obtained:
[1] = target: RSV株A/长(ATCC目录号VR-26)的G蛋白 (RSV A/长) (UniProt P20895); assay: cell-based or functional assay
长RSV G肽 (表15) = assay: ELISA, biotinylated peptide on avidin plate, mAb titrated
[2] = target: RSV G中央保守域(CCD)生物素结合的肽 SYM-1706 (RSV); assay: as above

B1: CR9505 (antibody, from another filing, V domains shown)
VH: EVQLQQSGPELVKPGTSVKISCKASGYSFTGFTMNWVKQSHGKNLEWFGLINPFNGNTGYNQKFKGKATLTVDKSSSTAFMELLSLTSEDSAVYYCARSGKSYDYEAWFTYWGQGTLVTVSA
VL: DIVMTQTTLSLPVSLGNQASISCRSSQTIVHTNGNTYLEWYLQKPGQSPKLLIYKVSNRFSGVPDRFSGSGSGTDFILNISRVEAEDLGVYYCFQGSHVPFTFGSGTKLEIKR
In the case of B1, the IC50 (空斑减少分析, 50%中和空斑形成) [1] is reported as 0.018 µg/mL.

B2: CB017.5L (antibody, V domains shown)
VH: QVQLVESGGGVVQPGRSLRLSCSASGFTFSVYAMHWVRQAPGQGLEWVAIIWYDGSNKYYADSVKGRFTISRDNSKETLYLQMNSLRVEDTAVYYCARDPIVGHTRDGLDVWGQGTTVTVSS
VL: SYELTQPPSVSVSPGQTARVTCSGDAMAEQYTYWYQQKPGQAPVLIIFKDTERPSGIPERFSGSSSGTTVTLTISGVQTEDEADYYCQSTDSSGTSWVFGGGTKLTVL
B2 was tested, and the IC50 (长RSV G肽 (表15)) was 0.02 µg/mL and the IC50 [2] was 0.02 µg/mL.

B3: CB030.1 (antibody, V domains shown)
VH: QVQLVQSGAEMKRPGSSVKVSCKASGGTFSTFAINWVRQAPGQGFEWMGGVIPGFDSANYAQKFQGRLTMSADESTSTVYMELSSLRSDDTAVYYCAGNSGYCSGDSCAPNWGPGTLVTVSS
VL: DIVMTQSPLSLPVTPGEPASISCRSSQSLVHSNGYSYLDWYLQKPGQSPQLLIYLGSNRPSGVPDRFSGSGSGTDFTLKISRVEAEDVGVYFCMQNLQTPTFGGGTKVEIK
B3 showed an IC50 (长RSV G肽 (表15)) of 0.02 µg/mL and an IC50 [2] of 0.02 µg/mL.

From CN111303278A
